In patent US20110014635:

Assays:
Alcadein β = test system: T1, Alcadein β
T1 sequence: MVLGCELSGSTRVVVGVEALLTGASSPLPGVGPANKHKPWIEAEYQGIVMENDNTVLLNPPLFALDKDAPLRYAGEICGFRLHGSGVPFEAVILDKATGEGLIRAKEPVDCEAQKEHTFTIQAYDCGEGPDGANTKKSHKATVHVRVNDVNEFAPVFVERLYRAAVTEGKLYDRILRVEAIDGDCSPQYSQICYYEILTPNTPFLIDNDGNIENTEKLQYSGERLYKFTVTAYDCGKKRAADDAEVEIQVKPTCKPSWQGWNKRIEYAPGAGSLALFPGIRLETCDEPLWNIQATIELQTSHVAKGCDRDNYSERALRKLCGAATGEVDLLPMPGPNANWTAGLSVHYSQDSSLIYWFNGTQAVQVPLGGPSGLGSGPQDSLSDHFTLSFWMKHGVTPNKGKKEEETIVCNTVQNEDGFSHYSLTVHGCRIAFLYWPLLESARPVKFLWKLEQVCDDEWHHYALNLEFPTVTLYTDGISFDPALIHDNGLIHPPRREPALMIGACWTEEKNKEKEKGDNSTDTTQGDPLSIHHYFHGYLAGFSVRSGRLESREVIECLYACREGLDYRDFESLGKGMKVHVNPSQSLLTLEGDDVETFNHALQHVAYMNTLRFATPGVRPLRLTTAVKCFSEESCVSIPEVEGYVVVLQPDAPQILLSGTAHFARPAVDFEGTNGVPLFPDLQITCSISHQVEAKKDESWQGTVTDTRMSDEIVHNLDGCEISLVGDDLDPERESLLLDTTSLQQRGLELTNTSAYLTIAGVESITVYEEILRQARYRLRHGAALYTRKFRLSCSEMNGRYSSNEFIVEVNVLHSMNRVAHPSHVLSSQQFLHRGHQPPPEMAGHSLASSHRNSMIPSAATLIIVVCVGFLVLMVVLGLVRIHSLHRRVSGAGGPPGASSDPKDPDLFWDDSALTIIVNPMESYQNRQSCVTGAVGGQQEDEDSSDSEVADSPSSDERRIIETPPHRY

Alcadein α (human Alcα1) = test system: T2, Alcadein α (human Alcα1)
T2 sequence: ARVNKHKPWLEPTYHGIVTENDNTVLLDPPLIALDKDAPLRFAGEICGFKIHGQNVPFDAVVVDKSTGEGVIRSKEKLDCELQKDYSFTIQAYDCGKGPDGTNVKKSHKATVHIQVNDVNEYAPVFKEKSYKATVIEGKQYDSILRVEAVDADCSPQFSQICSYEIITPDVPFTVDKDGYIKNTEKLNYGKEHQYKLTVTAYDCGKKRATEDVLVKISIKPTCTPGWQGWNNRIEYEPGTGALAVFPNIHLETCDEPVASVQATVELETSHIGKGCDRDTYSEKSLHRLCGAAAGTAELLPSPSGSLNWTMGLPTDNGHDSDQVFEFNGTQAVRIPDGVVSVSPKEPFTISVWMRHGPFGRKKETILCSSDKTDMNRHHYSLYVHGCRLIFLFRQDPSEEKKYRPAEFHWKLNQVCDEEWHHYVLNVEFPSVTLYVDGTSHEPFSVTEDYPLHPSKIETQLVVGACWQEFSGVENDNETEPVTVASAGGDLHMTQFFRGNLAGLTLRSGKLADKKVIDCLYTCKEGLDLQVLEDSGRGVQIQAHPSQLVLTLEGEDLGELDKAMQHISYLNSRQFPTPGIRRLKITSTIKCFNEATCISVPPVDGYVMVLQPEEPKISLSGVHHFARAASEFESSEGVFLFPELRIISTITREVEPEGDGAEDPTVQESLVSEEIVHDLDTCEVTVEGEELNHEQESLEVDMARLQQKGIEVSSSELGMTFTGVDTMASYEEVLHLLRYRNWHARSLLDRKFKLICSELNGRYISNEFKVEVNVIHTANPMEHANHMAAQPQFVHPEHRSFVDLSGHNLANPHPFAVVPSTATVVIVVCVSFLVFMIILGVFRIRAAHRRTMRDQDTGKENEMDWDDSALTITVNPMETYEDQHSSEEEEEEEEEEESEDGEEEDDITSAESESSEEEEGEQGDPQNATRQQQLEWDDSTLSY

Alcadein γ = test system: T3, Alcadein γ
T3 sequence: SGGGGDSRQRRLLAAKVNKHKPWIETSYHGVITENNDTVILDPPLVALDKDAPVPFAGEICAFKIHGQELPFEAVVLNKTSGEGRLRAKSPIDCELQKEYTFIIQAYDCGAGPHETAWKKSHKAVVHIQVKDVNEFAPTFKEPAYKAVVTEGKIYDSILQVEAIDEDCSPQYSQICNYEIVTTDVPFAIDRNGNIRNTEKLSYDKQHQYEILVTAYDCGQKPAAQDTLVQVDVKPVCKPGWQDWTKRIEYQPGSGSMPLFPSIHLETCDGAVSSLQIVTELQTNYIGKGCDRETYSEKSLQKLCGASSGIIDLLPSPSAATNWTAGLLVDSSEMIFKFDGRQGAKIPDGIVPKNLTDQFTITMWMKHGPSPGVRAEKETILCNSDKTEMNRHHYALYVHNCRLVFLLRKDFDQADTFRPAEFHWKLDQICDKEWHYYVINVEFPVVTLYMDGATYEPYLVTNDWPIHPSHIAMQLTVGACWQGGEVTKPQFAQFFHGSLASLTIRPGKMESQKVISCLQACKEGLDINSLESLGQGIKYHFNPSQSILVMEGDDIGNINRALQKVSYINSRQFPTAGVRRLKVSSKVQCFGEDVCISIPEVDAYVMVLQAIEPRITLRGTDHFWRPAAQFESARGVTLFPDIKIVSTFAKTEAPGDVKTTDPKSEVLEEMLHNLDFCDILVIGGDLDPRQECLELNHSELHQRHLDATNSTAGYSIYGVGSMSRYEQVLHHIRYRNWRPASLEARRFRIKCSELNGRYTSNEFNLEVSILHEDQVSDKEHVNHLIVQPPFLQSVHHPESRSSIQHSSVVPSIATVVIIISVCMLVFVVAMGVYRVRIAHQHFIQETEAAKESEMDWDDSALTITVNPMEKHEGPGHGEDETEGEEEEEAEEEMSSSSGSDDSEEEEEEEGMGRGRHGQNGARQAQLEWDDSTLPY

presenilin (endogenous, HEK293 cells)
fragments containing the C-terminal from incubated membrane fractions, Western blot (Alcadein β): such fragments were not detected in the samples to which the presenilin inhibitor was added | fragments containing the C-terminal (Alcα-ICD) from incubated membrane fractions, Western blot (Alcadein α (human Alcα1)): such fragments were not detected in the samples to which the presenilin inhibitor was added | fragments containing the C-terminal from incubated membrane fractions, Western blot (Alcadein γ): such fragments were not detected in the samples to which the presenilin inhibitor was added
